In patent US8969060B2, “Modified glucose dehydrogenase” (Ikeda Food Research Co., Ltd., priority 2011, dated 2015):
Numbering of substitutions follows the chain as printed. In names and notes the source's numbering stands.

B1: D343R: modified GLD: SEQ ID NO: 1 with substitution D343R (protein, listed as Aspergillus terreus)
chain: MLGKLSFLSALSLAVAAPLSNSTSAKYDYIVIGGGTSGLAVANRLSEDPNVNVLILEAGGSVWNNPNVTNVDGYGLAFGSDIDWQYQSVNQPYGGNLSQVLRAGKALGGTSTINGMAYTRAEDVQIDAWETIGNTGWTWKNLFPYYRKSENFTVPTKSQTSLGASYEAGAHGHEGPLDVAFTQIESNNLTTYLNRTFQGMGLPWTEDVNGGKMRGFNLYPSTVNLEEYVREDAARAYYWPYKSRPNLHVLLNTFANRIVWDGEAHDGHITASGVEITSRNGTVRVINAEKEVIVSAGALKSPAILELSGIGNPSVLDKHNIPVKVNLPTVGENLQDQVNSHMRASGNTSISGTKAVSYPDVYDVFGDEAESVAKQIRANLKQYAADTAKANGNIMKAADLERLFEVQYDLIFKGRVPIAEVLNYPGSATSVFAEFWALLPFARGSVHIGSSNPAEFPVINPNYFMLDWDAKSYVAVAKYIRRSFESYPLSSIVKESTPGYDVIPRNASEQSWKEWVFDKNYRSNFHPVGTAAMMPREIGGVVDERLNVYGTTNVRVVDASVLPFQVCGHLVSTLYAVAERAADLIKADAGRR
modifications: SIGNAL (1)..(19)
B2: G352Q: modified GLD: SEQ ID NO: 1 with substitution G352Q (protein, listed as Aspergillus terreus)
chain: B1 chain with R343D, G352Q
modifications: SIGNAL (1)..(19)
B3: A298I: modified GLD: SEQ ID NO: 1 with substitution A298I (protein, listed as Aspergillus terreus)
chain: B1 chain with A298I, R343D
modifications: SIGNAL (1)..(19)
B4: G352S: modified GLD: SEQ ID NO: 1 with substitution G352S (protein, listed as Aspergillus terreus)
chain: B1 chain with R343D, G352S
modifications: SIGNAL (1)..(19)
B5: K354C: modified GLD: SEQ ID NO: 1 with substitution K354C (protein, listed as Aspergillus terreus)
chain: B1 chain with R343D, K354C
modifications: SIGNAL (1)..(19)
B6: G352M: modified GLD: SEQ ID NO: 1 with substitution G352M (protein, listed as Aspergillus terreus)
chain: B1 chain with R343D, G352M
modifications: SIGNAL (1)..(19)
B7: G352P: modified GLD: SEQ ID NO: 1 with substitution G352P (protein, listed as Aspergillus terreus)
chain: B1 chain with R343D, G352P
modifications: SIGNAL (1)..(19)
B8: G352R: modified GLD: SEQ ID NO: 1 with substitution G352R (protein, listed as Aspergillus terreus)
chain: B1 chain with R343D, G352R
modifications: SIGNAL (1)..(19)
B9: D343V: modified GLD: SEQ ID NO: 1 with substitution D343V (protein, listed as Aspergillus terreus)
chain: B1 chain with R343V
modifications: SIGNAL (1)..(19)
B10: V338M: modified GLD: SEQ ID NO: 1 with substitution V338M (protein, listed as Aspergillus terreus)
chain: B1 chain with V338M, R343D
modifications: SIGNAL (1)..(19)
B11: D343W: modified GLD: SEQ ID NO: 1 with substitution D343W (protein, listed as Aspergillus terreus)
chain: B1 chain with R343W
modifications: SIGNAL (1)..(19)
B12: G352L: modified GLD: SEQ ID NO: 1 with substitution G352L (protein, listed as Aspergillus terreus)
chain: B1 chain with R343D, G352L
modifications: SIGNAL (1)..(19)
B13: K354A: modified GLD: SEQ ID NO: 1 with substitution K354A (protein, listed as Aspergillus terreus)
chain: B1 chain with R343D, K354A
modifications: SIGNAL (1)..(19)
B14: A298V: modified GLD: SEQ ID NO: 1 with substitution A298V (protein, listed as Aspergillus terreus)
chain: B1 chain with A298V, R343D
modifications: SIGNAL (1)..(19)
B15: G352F: modified GLD: SEQ ID NO: 1 with substitution G352F (protein, listed as Aspergillus terreus)
chain: B1 chain with R343D, G352F
modifications: SIGNAL (1)..(19)
B16: G352V: modified GLD: SEQ ID NO: 1 with substitution G352V (protein, listed as Aspergillus terreus)
chain: B1 chain with R343D, G352V
modifications: SIGNAL (1)..(19)
B17: K354D: modified GLD: SEQ ID NO: 1 with substitution K354D (protein, listed as Aspergillus terreus)
chain: B1 chain with R343D, K354D
modifications: SIGNAL (1)..(19)
B18: G352K: modified GLD: SEQ ID NO: 1 with substitution G352K (protein, listed as Aspergillus terreus)
chain: B1 chain with R343D, G352K
modifications: SIGNAL (1)..(19)
B19: D343Y: modified GLD: SEQ ID NO: 1 with substitution D343Y (protein, listed as Aspergillus terreus)
chain: B1 chain with R343Y
modifications: SIGNAL (1)..(19)
B20: D343S: modified GLD: SEQ ID NO: 1 with substitution D343S (protein, listed as Aspergillus terreus)
chain: B1 chain with R343S
modifications: SIGNAL (1)..(19)
B21: G352T: modified GLD: SEQ ID NO: 1 with substitution G352T (protein, listed as Aspergillus terreus)
chain: B1 chain with R343D, G352T
modifications: SIGNAL (1)..(19)
B22: G352N: modified GLD: SEQ ID NO: 1 with substitution G352N (protein, listed as Aspergillus terreus)
chain: B1 chain with R343D, G352N
modifications: SIGNAL (1)..(19)
B23: G352Y: modified GLD: SEQ ID NO: 1 with substitution G352Y (protein, listed as Aspergillus terreus)
chain: B1 chain with R343D, G352Y
modifications: SIGNAL (1)..(19)
B24: G352W: modified GLD: SEQ ID NO: 1 with substitution G352W (protein, listed as Aspergillus terreus)
chain: B1 chain with R343D, G352W
modifications: SIGNAL (1)..(19)
B25: K354E: modified GLD: SEQ ID NO: 1 with substitution K354E (protein, listed as Aspergillus terreus)
chain: B1 chain with R343D, K354E
modifications: SIGNAL (1)..(19)
B26: G352I: modified GLD: SEQ ID NO: 1 with substitution G352I (protein, listed as Aspergillus terreus)
chain: B1 chain with R343D, G352I
modifications: SIGNAL (1)..(19)

Experiments:
[1] = Relative enzymatic activity of GLD (DCIP/1-m-PMS, plate reader, yeast culture supernatant) with 1,10-phenanthroline present; assay type: biochemical; details: site-specific mutants, inhibitor final concentration 1 mM
Method in brief: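 Yeast transformants grown in YPD, 30° C., 24 h; diluted culture supernatant assayed in phosphate buffer pH 7.0 with D-glucose, DCIP and 1-m-PMS, DCIP absorbance change at 600 nm. Relative activity (%) = activity with 1 mM 1,10-phenanthroline (final, replacing methanol) divided by activity without it.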

[2] = Relative enzymatic activity of GLD (DCIP/1-m-PMS, plate reader, yeast culture supernatant) with proflavin hydrochloride present; assay type: biochemical; details: site-specific mutants, inhibitor final concentration 1 mM
Method in brief: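 Culture supernatant diluted and mixed with reagent of phosphate buffer pH 7.0, 1.0 M D-glucose, 3 mM DCIP, 3 mM 1-m-PMS and methanol (0.1:1:0.14:0.2:0.06). DCIP absorbance decrease at 600 nm followed; proflavin hydrochloride in methanol replaced methanol at 1 mM final. Activity expressed as % of inhibitor-free blank.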

Row | Molecule | Relative Activity [%] 1,10-Phenanthroline [1] [%] | Relative Activity [%] Proflavin hydrochloride [2] [%]
1 | B1 | 80.7 | 37.9
2 | B2 | 90.4 | 56.4
3 | B3 | 73.7 | 43.8
4 | B4 | 62.9 | 38.7
5 | B5 | 62.6 | 14.4
6 | B6 | 74.7 | 45.7
7 | B7 | 89.8 | 49.1
8 | B8 | 80.3 | 68.1
9 | B9 | 96.7 | 67.7
10 | B10 | 73.6 | 55.0
11 | B11 | 94.2 | 57.9
12 | B12 | 80.7 | 43.7
13 | B13 | 66.2 | 8.9
14 | B14 | 62.2 | 51.2
15 | B15 | 83.8 | 56.9
16 | B16 | 87.0 | 41.6
17 | B17 | 70.8 | 11.6
18 | B18 | 82.5 | 32.7
19 | B19 | 96.2 | 55.6
20 | B20 | 70.1 | 48.3
21 | B21 | 85.4 | 44.1
22 | B22 | 80.5 | 55.8
23 | B23 | 92.4 | 52.8
24 | B24 | 81.2 | 48.1
25 | B25 | 60.0 | 20.7
26 | B26 | 85.5 | 60.9
